{"source": "patent US20260167706A1", "about": "“ANTI-ADRENOMEDULLIN (ADM) ANTIBODY OR ANTI-ADM ANTIBODY FRAGMENT OR ANTI-ADM NON-IG SCAFFOLD FOR USE IN THERAPY OR PREVENTION OF SHOCK” (ADRENOMED AG, priority 2022, published 2026)", "key": {"[1]": {"molecular_target": "human recombinant adrenomedullin receptor (CRLR + RAMP3) (human)"}, "[2]": {"molecular_target": "human recombinant adrenomedullin receptor (CRLR + RAMP3) (human)", "remark": "listed apart in the source"}}}
{"substance": "human ADM 22-52 (from UniProt P35318) (peptide)", "values": [{"measurement": "IC50 (read off the curve); cAMP, % inhibition, 5.63 nM hADM as agonist", "setting": "[1]", "value": 200, "unit": "nM"}, {"measurement": "IC50 (read off the curve); cAMP, % inhibition, 0.67 nM mADM as agonist", "setting": "[2]", "value": 2000, "unit": "nM"}]}
